PMC13462943, “De novo EHMT2 variants cause an autosomal dominant EHMT2-related Kleefstra syndrome via loss of G9a methyltransferase activity” (Nature Communications, 2026)

Molecular target: the molecule itself
Test: native MS; dimerization of apo proteins: 5 µM protein in 150 mM ammonium acetate pH 7.5, 0.5 mM DTT; monomer-dimer distribution quantified

Protein	stoichiometry N
G9a methyltransferase domain (aa residues 913-1193), K1162R (domain or fragment, human, UniProt Q96KQ7-1 913-1193, looked up, G9a (EHMT2), human, methyltransferase (SET) domain, aa residues 913-1193, patient variant; numbered on NP_006700.3; De novo patient variant made by site-directed mutagenesis; also called p.Lys1162Arg; c.3485A>G; source: E. coli BL21-CodonPlus (DE3)-RIPL, pET28a, purified (IMAC, TEV cleavage, SEC, second IMAC); not shown: His6, N-terminal, cleaved) NRAIRTEKIICRDVARGYENVPIPCVNGVDGEPCPEDYKYISENCETSTMNIDRNITHLQHCTCVDDCSSSNCLCGQLSIRCWYDKDGRLLQEFNKIEPPLIFECNQACSCWRNCKNRVVQSGIKVRLQLYRTAKMGWGVRALQTIPQGTFICEYVGELISDAEADVREDDSYLFDLDNKDGEVYCIDARYYGNISRFINHLCDPNIIPVRVFMLHQDLRFPRIAFFSSRDIRTGEELGFDYGDRFWDIRSKYFTCQCGSEKCKHSAEAIALEQSRLARLD	2
G9a methyltransferase domain (aa residues 913-1193), wild type (domain or fragment, human, UniProt Q96KQ7-1 913-1193, looked up, G9a (EHMT2), human, methyltransferase (SET) domain, aa residues 913-1193; variants numbered on NP_006700.3; His tag removed by TEV protease; also called EHMT2; euchromatin histone lysine methyltransferase 2; source: E. coli BL21-CodonPlus (DE3)-RIPL, pET28a, purified (IMAC, TEV cleavage, SEC, second IMAC); not shown: His6, N-terminal, cleaved) NRAIRTEKIICRDVARGYENVPIPCVNGVDGEPCPEDYKYISENCETSTMNIDRNITHLQHCTCVDDCSSSNCLCGQLSIRCWYDKDGRLLQEFNKIEPPLIFECNQACSCWRNCKNRVVQSGIKVRLQLYRTAKMGWGVRALQTIPQGTFICEYVGELISDAEADVREDDSYLFDLDNKDGEVYCIDARYYGNISRFINHLCDPNIIPVRVFMLHQDLRFPRIAFFSSRDIRTGEELGFDYGDRFWDIKSKYFTCQCGSEKCKHSAEAIALEQSRLARLD	2
G9a methyltransferase domain (aa residues 913-1193), A1077T (domain or fragment, human, UniProt Q96KQ7-1 913-1193, looked up, G9a (EHMT2), human, methyltransferase (SET) domain, aa residues 913-1193, patient variant; numbered on NP_006700.3; De novo patient variant made by site-directed mutagenesis; also called p.Ala1077Thr; c.3229G>A; source: E. coli BL21-CodonPlus (DE3)-RIPL, pET28a, purified (IMAC, TEV cleavage, SEC, second IMAC); not shown: His6, N-terminal, cleaved) NRAIRTEKIICRDVARGYENVPIPCVNGVDGEPCPEDYKYISENCETSTMNIDRNITHLQHCTCVDDCSSSNCLCGQLSIRCWYDKDGRLLQEFNKIEPPLIFECNQACSCWRNCKNRVVQSGIKVRLQLYRTAKMGWGVRALQTIPQGTFICEYVGELISDAETDVREDDSYLFDLDNKDGEVYCIDARYYGNISRFINHLCDPNIIPVRVFMLHQDLRFPRIAFFSSRDIRTGEELGFDYGDRFWDIKSKYFTCQCGSEKCKHSAEAIALEQSRLARLD	2
G9a methyltransferase domain (aa residues 913-1193), A1077S (domain or fragment, human, UniProt Q96KQ7-1 913-1193, looked up, G9a (EHMT2), human, methyltransferase (SET) domain, aa residues 913-1193, patient variant; numbered on NP_006700.3; De novo patient variant made by site-directed mutagenesis; also called p.Ala1077Ser; c.3229G>T; source: E. coli BL21-CodonPlus (DE3)-RIPL, pET28a, purified (IMAC, TEV cleavage, SEC, second IMAC); not shown: His6, N-terminal, cleaved) NRAIRTEKIICRDVARGYENVPIPCVNGVDGEPCPEDYKYISENCETSTMNIDRNITHLQHCTCVDDCSSSNCLCGQLSIRCWYDKDGRLLQEFNKIEPPLIFECNQACSCWRNCKNRVVQSGIKVRLQLYRTAKMGWGVRALQTIPQGTFICEYVGELISDAESDVREDDSYLFDLDNKDGEVYCIDARYYGNISRFINHLCDPNIIPVRVFMLHQDLRFPRIAFFSSRDIRTGEELGFDYGDRFWDIKSKYFTCQCGSEKCKHSAEAIALEQSRLARLD	2
G9a methyltransferase domain (aa residues 913-1193), N1112S (domain or fragment, human, UniProt Q96KQ7-1 913-1193, looked up, G9a (EHMT2), human, methyltransferase (SET) domain, aa residues 913-1193, patient variant; numbered on NP_006700.3; De novo patient variant made by site-directed mutagenesis; also called p.Asn1112Ser; c.3335A>G; source: E. coli BL21-CodonPlus (DE3)-RIPL, pET28a, purified (IMAC, TEV cleavage, SEC, second IMAC); not shown: His6, N-terminal, cleaved) NRAIRTEKIICRDVARGYENVPIPCVNGVDGEPCPEDYKYISENCETSTMNIDRNITHLQHCTCVDDCSSSNCLCGQLSIRCWYDKDGRLLQEFNKIEPPLIFECNQACSCWRNCKNRVVQSGIKVRLQLYRTAKMGWGVRALQTIPQGTFICEYVGELISDAEADVREDDSYLFDLDNKDGEVYCIDARYYGNISRFISHLCDPNIIPVRVFMLHQDLRFPRIAFFSSRDIRTGEELGFDYGDRFWDIKSKYFTCQCGSEKCKHSAEAIALEQSRLARLD	2
G9a methyltransferase domain (aa residues 913-1193), F1158L (domain or fragment, human, UniProt Q96KQ7-1 913-1193, looked up, G9a (EHMT2), human, methyltransferase (SET) domain, aa residues 913-1193, patient variant; numbered on NP_006700.3; De novo patient variant made by site-directed mutagenesis; also called p.Phe1158Leu; c.3472T>C; source: E. coli BL21-CodonPlus (DE3)-RIPL, pET28a, purified (IMAC, TEV cleavage, SEC, second IMAC); not shown: His6, N-terminal, cleaved) NRAIRTEKIICRDVARGYENVPIPCVNGVDGEPCPEDYKYISENCETSTMNIDRNITHLQHCTCVDDCSSSNCLCGQLSIRCWYDKDGRLLQEFNKIEPPLIFECNQACSCWRNCKNRVVQSGIKVRLQLYRTAKMGWGVRALQTIPQGTFICEYVGELISDAEADVREDDSYLFDLDNKDGEVYCIDARYYGNISRFINHLCDPNIIPVRVFMLHQDLRFPRIAFFSSRDIRTGEELGFDYGDRLWDIKSKYFTCQCGSEKCKHSAEAIALEQSRLARLD	2
G9a methyltransferase domain (aa residues 913-1193), Del 1076-9 (domain or fragment, human, UniProt Q96KQ7-1 913-1193, looked up, G9a (EHMT2), human, methyltransferase (SET) domain, aa residues 913-1193, patient variant; numbered on NP_006700.3; also called p.Glu1076_Val1079del; c.3225_3236del; source: E. coli BL21-CodonPlus (DE3)-RIPL, pET28a, purified (IMAC, TEV cleavage, SEC, second IMAC); not shown: His6, N-terminal, cleaved) NRAIRTEKIICRDVARGYENVPIPCVNGVDGEPCPEDYKYISENCETSTMNIDRNITHLQHCTCVDDCSSSNCLCGQLSIRCWYDKDGRLLQEFNKIEPPLIFECNQACSCWRNCKNRVVQSGIKVRLQLYRTAKMGWGVRALQTIPQGTFICEYVGELISDAREDDSYLFDLDNKDGEVYCIDARYYGNISRFINHLCDPNIIPVRVFMLHQDLRFPRIAFFSSRDIRTGEELGFDYGDRFWDIKSKYFTCQCGSEKCKHSAEAIALEQSRLARLD	2
G9a methyltransferase domain (aa residues 913-1193), Del 1163-4 (domain or fragment, human, UniProt Q96KQ7-1 913-1193, looked up, G9a (EHMT2), human, methyltransferase (SET) domain, aa residues 913-1193, patient variant; numbered on NP_006700.3; De novo patient variant made by site-directed mutagenesis; also called p.Ser1163_Lys1164del; c.3487_3492del; source: E. coli BL21-CodonPlus (DE3)-RIPL, pET28a, purified (IMAC, TEV cleavage, SEC, second IMAC); not shown: His6, N-terminal, cleaved) NRAIRTEKIICRDVARGYENVPIPCVNGVDGEPCPEDYKYISENCETSTMNIDRNITHLQHCTCVDDCSSSNCLCGQLSIRCWYDKDGRLLQEFNKIEPPLIFECNQACSCWRNCKNRVVQSGIKVRLQLYRTAKMGWGVRALQTIPQGTFICEYVGELISDAEADVREDDSYLFDLDNKDGEVYCIDARYYGNISRFINHLCDPNIIPVRVFMLHQDLRFPRIAFFSSRDIRTGEELGFDYGDRFWDIKYFTCQCGSEKCKHSAEAIALEQSRLARLD	2
GLP methyltransferase domain (aa 1001-1266), wild type (domain or fragment, human, UniProt Q9H9B1-1 1001-1266, looked up, GLP (EHMT1), human, methyltransferase (SET) domain, aa 1001-1266; NM_024757.5 is printed for the EHMT1 variant of the Kleefstra syndrome 1 patient, not expressly for this construct; also called EHMT1; euchromatin histone lysine methyltransferase 1; source: E. coli BL21-CodonPlus (DE3)-RIPL, pET28a, purified (IMAC, TEV cleavage, SEC, second IMAC); not shown: His6, N-terminal, cleaved) DRPSPVERIVSRDIARGYERIPIPCVNAVDSEPCPSNYKYVSQNCVTSPMNIDRNITHLQYCVCIDDCSSSNCMCGQLSMRCWYDKDGRLLPEFNMAEPPLIFECNHACSCWRNCRNRVVQNGLRARLQLYRTRDMGWGVRSLQDIPPGTFVCEYVGELISDSEADVREEDSYLFDLDNKDGEVYCIDARFYGNVSRFINHHCEPNLVPVRVFMAHQDLRFPRIAFFSTRLIEAGEQLGFDYGERFWDIKGKLFSCRCGSPKCRHS	2
